Assay results from article PMC10480278.
“And” between values parts separate entries of the source, which are not always exact repeats. Equal entries are not always repeated.

Experiments:
[1] = target: Asp186 (UniProt position 186, DGFRFDAAKHM); assay: kinetics; conditions: 70 °C; mixture of citrate, phosphate and glycine buffers (100 mM each); Enzyme turning over starch and maltose (activity assay); 0.5 U/mL purified enzyme
[2] = target: Glu216 (UniProt position 216, GIFLAEIWAEA); assay: kinetics; conditions: 70 °C; mixture of citrate, phosphate and glycine buffers (100 mM each); Enzyme turning over starch and maltose (activity assay); 0.5 U/mL purified enzyme

In the case of “4-alpha-glucanotransferase (TmGTase) truncated loop variant (Thermotoga maritima; del120-124;del128-131)”, the pKa [1] is reported as 4.6 ± 0.1 and the pKa [2] is reported as 8.9 ± 0.1.
For “4-alpha-glucanotransferase (TmGTase) W131G (Thermotoga maritima; W131G)”, the pKa [1] was 4.7 ± 0.1 and 4.5 ± 0.09 and the pKa [2] was 8.9 ± 0.1.
“4-alpha-glucanotransferase (TmGTase), wild type (Thermotoga maritima)” was tested, and the pKa [1] was 4.4 ± 0.1 and the pKa [2] was 8.9 ± 0.1.
